The values below come from patent publication US20260125451A1.

This experiment addresses BAFF and ARPIL. As to the kind of experiment: cell-based or functional assay.

B1: B637302 (protein)
heavy: EVQLVQSGAEVKKPGESLKISCKGSGYIFTNYWIAWVRQMPGKGLESMGIIYPGDSDIRYSPSFQGQVTISADKSITTAYLQWSSLKASDTAMYYCARHDIEGFDYWGRGTLVTVSSASTKGPSVFPLAPSSKSTSGGTAALGCLVKDYFPEPVTVSWNSGALTSGVHTFPAVLQSSGLYSLSSVVTVPSSSLGTQTYICNVNHKPSNTKVDKRVEPKSCDKTHTCPPCPAPEFEGGPSVFLFPPKPKDTLMISRTPEVTCVVVDVSHEDPEVKFNWYVDGVEVHNAKTKPREEQYNSTYRVVSVLTVLHQDWLNGKEYKCKVSNKALPASIEKTISKAKGQPREPQVYTLPPSRDELTKNQVSLTCLVKGFYPSDIAVEWESNGQPENNYKTTPPVLDSDGSFFLYSKLTVDKSRWQQGNVFSCSVMHEALHNHYTQKSLSLSPGK
light: EIVLTQSPGTLSLSPGERATLSCRASQSVSSSFFAWYQQKPGQAPRLLIYGASSRATGIPDRLSGSGSGTDFTLTITRLEPEDFAVYYCQQYDSSAITFGQGTRLEIKRTVAAPSVFIFPPSDEQLKSGTASVVCLLNNFYPREAKVQWKVDNALQSGNSQESVTEQDSKDSTYSLSSTLTLSKADYEKHKVYACEVTHQGLSSPVTKSFNRGECGGGGSGGGGSMLQMAGQCSQNEYFDSLLHACIPCQLRCSSNTPPLTCQRYCSTSCREEQGEFYDHLLRDCISCASICGQHPKQCAAFCE
B1: the CD27+ CD38+ plasma cell count, mean, BAFF + APRIL-induced, drug at 10 nM worked out at 563 count; the CD27+ CD38+ plasma cell count, mean, BAFF + APRIL-induced, drug at 100 nM was determined as 482 count; the CD27+ CD38+ plasma cell count, mean, BAFF + APRIL-induced, drug at 1000 nM came out at 137 count.

B2: B606401 (protein)
heavy: B1 heavy
light: EIVLTQSPGTLSLSPGERATLSCRASQSVSSSFFAWYQQKPGQAPRLLIYGASSRATGIPDRLSGSGSGTDFTLTITRLEPEDFAVYYCQQYDSSAITFGQGTRLEIKRTVAAPSVFIFPPSDEQLKSGTASVVCLLNNFYPREAKVQWKVDNALQSGNSQESVTEQDSKDSTYSLSSTLTLSKADYEKHKVYACEVTHQGLSSPVTKSFNRGECGGGGSGGGGSSTSCREEQGEFYDHLLRDCISCASICGQHPKQCAAFCE
Turning to B2, the CD27+ CD38+ plasma cell count, mean, BAFF + APRIL-induced, drug at 10 nM amounted to 654 count; the CD27+ CD38+ plasma cell count, mean, BAFF + APRIL-induced, drug at 100 nM was 549 count; the CD27+ CD38+ plasma cell count, mean, BAFF + APRIL-induced, drug at 1000 nM came to 426 count.

B3: Telitacicept (RCT-18) (Fc fusion)
chain: SRVDQEERFPQGLWTGVAMRSCPEEQYWDPLLGTCMSCKTICNHQSQRTCAAFCRSLSCRKEQGKFYDHLLRDCISCASICGQHPKQCAYFCENKLRSPVNLPPELDKTHTCPPCPAPEAEGAPSVFLFPPKPKDTLMISRTPEVTCVVVDVSHEDPEVKFNWYVDGVEVHNAKTKPREEQYNSTYRVVSVLTVLHQDWLNGKEYKCKVSNKALPSSIEKTISKAKGQPREPQVYTLPPSRDELTKNQVSLTCLVKGFYPSDIAVEWESNGQPENNYKTTPPVLDSDGSFFLYSKLTVDKSRWQQGNVFSCSVMHEALHNHYTQKSLSLSPGK
Take B3: the CD27+ CD38+ plasma cell count, mean, BAFF + APRIL-induced, drug at 10 nM was 2450 count; the CD27+ CD38+ plasma cell count, mean, BAFF + APRIL-induced, drug at 100 nM worked out at 510 count; the CD27+ CD38+ plasma cell count, mean, BAFF + APRIL-induced, drug at 1000 nM turned out to be 230 count.

B4: B746201 (protein)
heavy: EVQLVQSGAEVKKPGESLKISCKGSGYIFTNYWIAWVRQMPGKGLESMGIIYPGDSDIRYSPSFQGQVTISADKSITTAYLQWSSLKASDTAMYYCARHDIEGFDYWGRGTLVTVSSASTKGPSVFPLAPSSKSTSGGTAALGCLVKDYFPEPVTVSWNSGALTSGVHTFPAVLQSSGLYSLSSVVTVPSSSLGTQTYICNVNHKPSNTKVDKRVEPKSCDKTHTCPPCPAPEFEGGPSVFLFPPKPKDTLMISRTPEVTCVVVDVSHEDPEVKFNWYVDGVEVHNAKTKPREEQYNSTYRVVSVLTVLHQDWLNGKEYKCKVSNKALPASIEKTISKAKGQPREPQVYTLPPSRDELTKNQVSLTCLVKGFYPSDIAVEWESNGQPENNYKTTPPVLDSDGSFFLYSKLTVDKSRWQQGNVFSCSVMHEALHNHYTQKSLSLSPGKGGGGSGGGGSGGGGSMLQMAGQCSQNEYFDSLLHACIPCQLRCSSNTPPLTCQRYCSTSCREEQGEFYDHLLRDCISCASICGQHPKQCAAFCE
light: EIVLTQSPGTLSLSPGERATLSCRASQSVSSSFFAWYQQKPGQAPRLLIYGASSRATGIPDRLSGSGSGTDFTLTITRLEPEDFAVYYCQQYDSSAITFGQGTRLEIKRTVAAPSVFIFPPSDEQLKSGTASVVCLLNNFYPREAKVQWKVDNALQSGNSQESVTEQDSKDSTYSLSSTLTLSKADYEKHKVYACEVTHQGLSSPVTKSFNRGEC
Turning to B4, the CD27+ CD38+ plasma cell count, mean, BAFF + APRIL-induced, drug at 10 nM came out at 575 count; the CD27+ CD38+ plasma cell count, mean, BAFF + APRIL-induced, drug at 100 nM worked out at 520 count; the CD27+ CD38+ plasma cell count, mean, BAFF + APRIL-induced, drug at 1000 nM stood at 410 count.

B5: B805201 (protein)
heavy: EVQLVQSGAEVKKPGESLKISCKGSGYIFTNYWIAWVRQMPGKGLESMGIIYPGDSDIRYSPSFQGQVTISADKSITTAYLQWSSLKASDTAMYYCARHDIEGFDYWGRGTLVTVSSASTKGPSVFPLAPSSKSTSGGTAALGCLVKDYFPEPVTVSWNSGALTSGVHTFPAVLQSSGLYSLSSVVTVPSSSLGTQTYICNVNHKPSNTKVDKRVEPKSCDKTHTCPPCPAPEFEGGPSVFLFPPKPKDTLMISRTPEVTCVVVDVSHEDPEVKFNWYVDGVEVHNAKTKPREEQYNSTYRVVSVLTVLHQDWLNGKEYKCKVSNKALPASIEKTISKAKGQPREPQVYTLPPSRDELTKNQVSLTCLVKGFYPSDIAVEWESNGQPENNYKTTPPVLDSDGSFFLYSKLTVDKSRWQQGNVFSCSVMHEALHNHYTQKSLSLSPGKGGGGSGGGGSGGGGSSTSCREEQGEFYDHLLRDCISCASICGQHPKQCAAFCE
light: B4 light
B5: the CD27+ CD38+ plasma cell count, mean, BAFF + APRIL-induced, drug at 10 nM turned out to be 434 count; the CD27+ CD38+ plasma cell count, mean, BAFF + APRIL-induced, drug at 100 nM was determined as 426 count; the CD27+ CD38+ plasma cell count, mean, BAFF + APRIL-induced, drug at 1000 nM amounted to 438 count.
